Measured values: patent US20060234940

Experiments:
[1] = tested on: peptides of the growth hormone releasing factor (GRF) family
[2] = target: [Gly]^2-glucagon (UniProt P01275)
[3] = target: Glucagon (UniProt P01275)
[4] = target: His^1-Ser^2-NPY (UniProt P01303)

Sequence of [Gly]^2-glucagon (P01275 whole entry, looked up): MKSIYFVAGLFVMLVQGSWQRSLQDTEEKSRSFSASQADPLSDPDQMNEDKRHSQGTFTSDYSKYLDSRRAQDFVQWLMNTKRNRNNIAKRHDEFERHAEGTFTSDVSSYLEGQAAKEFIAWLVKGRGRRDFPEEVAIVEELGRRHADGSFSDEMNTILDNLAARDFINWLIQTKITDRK
Sequence of Glucagon (P01275 53-81): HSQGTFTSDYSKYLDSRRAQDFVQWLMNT

With recombinant human DP IV, wild type the “hydrolysis (MALDI-TOF MS, capillary zone electrophoresis)” value [1] was “All peptides were hydrolyzed by porcine DP IV, recombinant human DP IV or DP IV activity of the human serum”.

Substance DP IV has a Km [M] of DP IV-catalyzed hydrolysis [2] of 2.2e-05 M, a Km [M] of DP IV-catalyzed hydrolysis [3] of 3.8e-06 M and a Km [M] of DP IV-catalyzed hydrolysis [4] of 6.8e-05 M.
